In the supplement of paper PMC9732359:
± gives the uncertainty stated by the source.

Experiment: protein stability index of a GFP-peptide fusion (yeast GPS) (PSI 1-4); higher = more stable; sorted into four equal gates, so the index is relative within each strain
Method in brief: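 Yeast carrying a pooled library were grown to mid-log phase in leucine-free medium. Each library plasmid expresses Cherry and has a tiled 17-residue yeast protein peptide fused downstream of GFP. Cells were sorted into four equal gates by GFP/Cherry ratio, and plasmids from each gate were PCR-amplified, Illumina-sequenced and assigned to strains by barcode. Summing, across gates, the read frequency times the gate number gave each peptide's protein stability index.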

Sequence	protein stability index (doa10∆)	protein stability index (pdr5∆)	protein stability index (san1∆)	protein stability index (ubr1∆)
LKRSTELLETVSLTKRK [YIL149C/MLP2]	1.66 ± 0.056	2.06 ± 0.045	2.09 ± 0.079	1.6 ± 0.027
EVLTYVNYLISNTMYSV [YJL039C/NUP192]	2.45 ± 0.056	2.35 ± 0.054	2.45 ± 0.044	2.5 ± 0.042
NIKIDAKPALFERFINA [MCD1]	1.76 ± 0.053	2.8 ± 0.095	2.3 ± 0.1	2.03 ± 0.066
TDGELDIEFINSLLTIV [RPC34]	2.78 ± 0.095	2.68 ± 0.14	2.4 ± 0.092	2.81 ± 0.091
ERLHELKKLQSDIESAN [SMC1]	2.99 ± 0.076	3.23 ± 0.12	3.19 ± 0.061	3.2 ± 0.067
AHRIMLTNILRMMGCVK [FAS2]	1.86 ± 0.061	1.87 ± 0.06	1.9 ± 0.12	2.41 ± 0.19
NVESVGSIPVDQVVVRG [RPB3]	2.63 ± 0.057	2.45 ± 0.072	2.3 ± 0.07	2.23 ± 0.059
EFNGFSLYQVDPSGSYF [PRE8]	2.19 ± 0.057	2.05 ± 0.08	2.1 ± 0.15	2.43 ± 0.077
ELIALNLSEARLVIKEA [RPB4]	3.01 ± 0.16			2.73 ± 0.18
VQYLRSVQDLGGSATAR [YML031W/NDC1]	2.14 ± 0.13	1.5 ± 0.069	1.53 ± 0.22	1.57 ± 0.064
CSSATVPKHMLDKLDEI [AAR2]	2.79 ± 0.069	3.05 ± 0.088	2.98 ± 0.08	3.2 ± 0.067
QAHTLYNSVRPFGVSTI [PRE10]	2.71 ± 0.083	2.74 ± 0.071	2.92 ± 0.095	2.6 ± 0.042
LRASFNKLSSILQNEHD [SRB4]	2.1 ± 0.1	2.22 ± 0.069	1.52 ± 0.14	2.49 ± 0.053
LCEEYLVNNGQSDLEHD [RPN7]	2.78 ± 0.11	2.63 ± 0.11	2.66 ± 0.081	2.48 ± 0.12
IQNKKIQEQRVKDKQSK [RPN8]	1.97 ± 0.11	2.78 ± 0.13		2.92 ± 0.13
EKTYTKAPKIQRLVTPQ [RPS6A]	2.62 ± 0.056	2.43 ± 0.055	2.11 ± 0.064	2.22 ± 0.037
RGFSKDLKSKADKLADM [RRP6]	3.34 ± 0.28			
QTENDLKDIEARIKEKA [RPT1]	2.8 ± 0.13	2.91 ± 0.11	3.03 ± 0.099	3.37 ± 0.065
FMKKLRAAKLAAPENEK [RPS15]	2.85 ± 0.14	3.25 ± 0.17	2.48 ± 0.11	3.48 ± 0.22
EYLTLNDFNDLNIDWST [MED2]	2.83 ± 0.06	2.92 ± 0.062	2.6 ± 0.053	2.51 ± 0.043
QALDISKKGKPTVNKKP [SRP72]	2.59 ± 0.16	2.82 ± 0.1	2.36 ± 0.16	2.3 ± 0.14
HIMEPCIECQPKAMTDT [HRT1]	3.13 ± 0.13	3.25 ± 0.091	2.94 ± 0.11	3.29 ± 0.077
PFTNEAHMWPRVHDQPL [POP3]		1.36 ± 0.24		
VASLSKRNKLLTIFDSV [YJL039C/NUP192]	1.98 ± 0.059	1.93 ± 0.048	2.28 ± 0.063	1.89 ± 0.048
SNNELVRTNTLTKAAIV [RPS8A]	2.842 ± 0.022	3.046 ± 0.022	2.724 ± 0.022	3.021 ± 0.018
LLLDNGFNMKKITTSTE [SRP68]	2.19 ± 0.18	2.22 ± 0.091	3.05 ± 0.17	2.88 ± 0.1
TVAHIQYDFKAVLEEND [RPN14]	1.95 ± 0.12	2.72 ± 0.2	2.26 ± 0.11	2.28 ± 0.24
